This assay deals with 鼠CLDN18.2 (mCLDN18.2), claudin-18 isoform A2.1 [Mus musculus], NP_001181850.1 (mouse) (UniProt P56857). Nature of the assay: cell ELISA on mCLDN18.2+ cells (Table 23), background. (In general: ELISA stands for enzyme-linked immunosorbent assay.)
UniProt P56857, sequence (P56857 other isoform, or with tags, fused parts or gaps, form in doubt): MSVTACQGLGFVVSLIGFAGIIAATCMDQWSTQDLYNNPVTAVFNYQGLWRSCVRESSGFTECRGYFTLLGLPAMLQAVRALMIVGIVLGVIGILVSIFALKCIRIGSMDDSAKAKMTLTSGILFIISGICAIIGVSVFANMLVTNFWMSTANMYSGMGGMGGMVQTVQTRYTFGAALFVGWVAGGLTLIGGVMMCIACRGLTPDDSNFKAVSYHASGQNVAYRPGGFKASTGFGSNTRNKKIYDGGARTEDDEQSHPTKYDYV

Neg IgG (和靶点没有结合的非特异性抗体) (antibody): the Emax turned out to be 0.19.

The record behind these values is patent publication CN110606891A.
